1 molecule from publication PMC6052347, “Structure and Function of the Campylobacter jejuni Chromosome Replication Origin” can be followed below.

In this series the target is T1, 6HisCj1509 (Campylobacter jejuni 81116 (NCTC11828)?, UniProt Q0P820 1-295).
T1 sequence: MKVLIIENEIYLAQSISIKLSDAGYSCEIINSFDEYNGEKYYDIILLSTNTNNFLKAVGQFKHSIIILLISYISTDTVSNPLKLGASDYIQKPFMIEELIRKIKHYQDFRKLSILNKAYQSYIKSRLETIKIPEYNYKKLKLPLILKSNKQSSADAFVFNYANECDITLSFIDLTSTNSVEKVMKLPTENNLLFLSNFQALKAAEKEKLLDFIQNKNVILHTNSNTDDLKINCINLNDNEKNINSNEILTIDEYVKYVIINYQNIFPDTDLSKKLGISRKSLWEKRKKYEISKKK
Kind of series: EMSA; higher affinity than boxes 1 and 3; EMSA: room temperature, 15 min, up to 30 nM DnaA or 400 nM Cj1509, 4% PAGE in 1x TBE; box probes 0.4 uM; binding buffer not given (as in Jaworski 2016); DnaA with 5 mM ATP (footprinting) or 3 mM ATP (EM). The following applies: protein: recombinant; tags: N-terminal 6xHis (pET28a); chain copies: 2; label: FAM 5' on E7; blunt; three strands, nick between E7 and E10, E11 complementary to E7+E10.

B1: Cj1509 box 2 probe (E7-E10-E11) (dsDNA)
DNA 1: GTGCCCTGGTCTGG
DNA 2: TTTGAAGAATGTTACAATTTCAACA
DNA 3: TGTTGAAATTGTAACATTCTTCAAACCAGACCAGGGCAC
As to B1, the binding result is “binds”.
